Source: paper PMC4051425
Like-named read-outs stand apart in the source and are kept apart here.

T1: TRBP-RBD2 (second dsRBD of TRBP) (UniProt Q15633 159-227)
T1 sequence: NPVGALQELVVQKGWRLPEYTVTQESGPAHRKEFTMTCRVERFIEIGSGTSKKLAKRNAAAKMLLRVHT

B1: 25-bp dsRNA (dsRNA)
RNA 1: GCUUGUCGGGAGCGCCACCCUCUGC
RNA 2: GCAGAGGGUGGCGCUCCCGACAAGC
B2: 25-bp dsDNA (dsDNA)
DNA 1: GCTTGTCGGGAGCGCCACCCTCTGC
DNA 2: GCAGAGGGTGGCGCTCCCGACAAGC

Key:
[1] = molecular target: T1, TRBP-RBD2 (second dsRBD of TRBP); assay: EMSA
[2] = molecular target: T1, TRBP-RBD2 (second dsRBD of TRBP); assay: EMSA; remark: listed apart in the source

Binder	binding result [1]	binding result [2]
B1	binds	–
B2	–	no binding
